The results in this text go back to article PMC10403523.

As usually defined, the Ki is a dissociation constant, usually derived from enzyme kinetics or from competition with a known ligand.

The test system of data set [1] is yeast SWI/SNF complex (WT) (Saccharomyces cerevisiae). The data set is described as follows: EMSA. To be noted: apparent KD, Kd EMSA: 6.7 nM DNA or nucleosome, 1.3-23 nM SWI/SNF, 4% native PAGE (79:1), Methods: prebinding 30 C, 15 min, gel in 0.5x TBE, binding buffer, salt and pH not …. A general note: Mobility shift assays separate free from complexed probe on a gel.

The test system is the same in data set [2]. Briefly: competition. To be noted: EMSA competition against 601 DNA; Kd EMSA: 6.7 nM DNA or nucleosome, 1.3-23 nM SWI/SNF, 4% native PAGE (79:1); Methods: prebinding 30 C, 15 min, gel in 0.5x …; binding buffer, salt and pH not.
The target of data set [3] is 29N59 mononucleosome: recombinant Xenopus laevis histone octamer on 601 DNA with 29 and 59 bp of flanking DNA (Xenopus laevis). Briefly: native gel or EMSA; apparent KD; 6.7 nM 29N59 nucleosomes, WT or ΔAT SWI/SNF varied from 1.3 to 23 nM; 4% native polyacrylamide gel (79:1).

Consider 29N59 nucleosome, for which the Kd in data set [1] (6.7 nM nucleosome, recombinant Xenopus laevis histone octamer) is 7.67 nM.

For the substance 235 bp 601 DNA, the Kd in data set [1] (6.7 nM DNA) was determined as 7.87 nM.

For the substance pUC19 plasmid, the inhibitory constant (Ki) in data set [2] was determined as 12 nM.

As for “yeast SWI/SNF complex with both AT-hooks of Snf2 deleted (from UniProt P22082 1-1703; P18480 1-905; Q12406 1-477; P09547 1-1314; P18888 1-332)”, the Kd in data set [3] was 20.5 nM.

In the case of “yeast SWI/SNF complex, wild type (from UniProt P22082 1-1703; P18480 1-905; Q12406 1-477; P09547 1-1314; P18888 1-332)”, the Kd in data set [3] came out at 7.67 nM.
